Test results from patent US11512128B2, “VEGF/DLL4 binding agents and uses thereof” (MEREO BIOPHARMA 5, INC., priority 2011, dated 2022).
Changes are numbered by the printed parent chain.

T1: mouse VEGF165 (Mus musculus, UniProt Q00731)
T1 sequence (Q00731 27-190 isoform Q00731-2): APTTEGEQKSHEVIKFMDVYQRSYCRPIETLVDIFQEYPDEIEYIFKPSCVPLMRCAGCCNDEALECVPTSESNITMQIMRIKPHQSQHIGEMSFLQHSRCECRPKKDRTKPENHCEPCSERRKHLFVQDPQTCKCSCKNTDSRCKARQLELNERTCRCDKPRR

B1: 21M18: anti-DLL4 antibody, parental antibody (Hoey et al., 2009; U.S. Pat. No. 7,750,124) (antibody, V domains shown)
VH: QVQLVQSGAEVKKPGASVKISCKASGYSFTAYYIHWVKQAPGQGLEWIGYISSYNGATNYNQKFKGRVTFTTDTSTSTAYMELRSLRSDDTAVYYCARDYDYDVGMDYWGQGTLVTVSS
VL: DIVMTQSPDSLAVSLGERATISCRASESVDNYGISFMKWFQQKPGQPPKLLIYAASNQGSGVPDRFSGSGSGTDFTLTISSLQAEDVAVYYCQQSKEVPWTFGGGTKVEIK
B2: 219R45-MB-21R79: anti-VEGF/anti-DLL4 monovalent/bispecific antibody, heavy chains SEQ ID NO:7 and 6, light chains SEQ ID NO:8 (antibody)
heavy 1: QVQLVQSGAEVKKPGASVKVSCKASGYTFTNYWMHWVRQAPGQGLEWMGDINPSNGRTSYKEKFKRRVTLSVDKSSSTAYMELSSLRSEDTAVYFCTIHYDDKYYPLMDYWGQGTLVTVSSASTKGPSVFPLAPCSRSTSESTAALGCLVKDYFPEPVTVSWNSGALTSGVHTFPAVLQSSGLYSLSSVVTVPSSNFGTQTYTCNVDHKPSNTKVDKTVERKCCVECPPCPAPPVAGPSVFLFPPKPKDTLMISRTPEVTCVVVDVSHEDPEVQFNWYVDGVEVHNAKTKPREEQFNSTFRVVSVLTVVHQDWLNGKEYKCKVSNKGLPAPIEKTISKTKGQPREPQVYTLPPSREKMTKNQVSLTCLVKGFYPSDIAVEWESNGQPENNYKTTPPMLKSDGSFFLYSKLTVDKSRWQQGNVFSCSVMHEALHNHYTQKSLSLSPGK
heavy 2: QVQLVQSGAEVKKPGASVKISCKASGYSFTAYYIHWVKQAPGQGLEWIGYIANYNRATNYNQKFKGRVTFTTDTSTSTAYMELRSLRSDDTAVYYCARDYDYDVGMDYWGQGTLVTVSSASTKGPSVFPLAPCSRSTSESTAALGCLVKDYFPEPVTVSWNSGALTSGVHTFPAVLQSSGLYSLSSVVTVPSSNFGTQTYTCNVDHKPSNTKVDKTVERKCCVECPPCPAPPVAGPSVFLFPPKPKDTLMISRTPEVTCVVVDVSHEDPEVQFNWYVDGVEVHNAKTKPREEQFNSTFRVVSVLTVVHQDWLNGKEYKCKVSNKGLPAPIEKTISKTKGQPREPQVYTLPPSREEMTKNQVSLTCLVEGFYPSDIAVEWESNGQPENNYKTTPPMLDSDGSFFLYSELTVDKSRWQQGNVFSCSVMHEALHNHYTQKSLSLSPGK
light: DIVMTQSPDSLAVSLGERATISCRASESVDNYGISFMKWFQQKPGQPPKLLIYAASNQGSGVPDRFSGSGSGTDFTLTISSLQAEDVAVYYCQQSKEVPWTFGGGTKVEIKRTVAAPSVIFPPSDEQLKSGTASVVCLLNNFYPREAKVQWKVDNALQSGNSQESVTEQDSKDSTYSLSSTLTLSKADYEKHKVYACEVTHQGLSSPVTKSFNRGEC
modifications: 21R79 Heavy chain without predicted signal sequence; Light chain without predicted signal sequence
B3: 219R45-MB-21M18: anti-VEGF/anti-DLL4 monovalent/bispecific antibody, heavy chains SEQ ID NO:7 and 5, light chains SEQ ID NO:8 (antibody)
heavy 1: B2 heavy 1
heavy 2: B2 heavy 2 with A52S, N53S, R56G
light: B2 light
modifications: 21R79 Heavy chain without predicted signal sequence; 21M18 Heavy chain without predicted signal sequence; Light chain without predicted signal sequence

How the values were obtained:
[1] = tested on: DLL4-induced Notch signaling; assay: DLL4-induced Notch signaling luciferase reporter assay in Notch2-expressing PC3 cells; format: cell-based; conditions: coated human DLL4 100 ng/well, antibody 20 to 0.064 ug/ml
Protocol: FIG. 4. Inhibition of DLL4-induced Notch signaling by anti-VEGF/anti-DLL4 bispecific antibodies. Luciferase activity was measured using a dual luciferase assay kit with firefly luciferase activity normalized to Renilla luciferase activity. 219R45-MB-21M18 (-●-); 219R45-MB-21R79 (-▪-); 21M18 (-∘-); 21R79 (-□-).
Human PC3 cells were transfected with an expression vector encoding a full-length human Notch2 receptor and a firefly luciferase reporter vector (8× CBF-luciferase reporter) that is responsive to Notch signaling. The cells were also transfected with a Renilla luciferase reporter (Promega, Madison, Wis.) as an internal control for transfection efficiency. Purified human DLL4 protein was coated onto 96-well plates at 100 ng/well and Notch2-expressing PC3-luc cells were added to the wells. Anti-VEGF/anti-DLL4 bispecific antibodies 219R45-MB-21M18, 219R45-MB-21R79, parental anti-DLL4 antibodies 21M18, 21R79 or a control antibody LZ1 were serially diluted 5-fold from 20 ug/ml to 0.064 ug/ml, added to the appropriate wells, and incubated overnight. Luciferase activity was determined using a dual luciferase assay kit (Promega, Madison, Wis.) with firefly luciferase activity normalized to Renilla luciferase activity.

mouse DLL4-Fc = assay: Biacore binding affinity (KD) to mouse DLL4; conditions: Biacore 2000, mouse DLL4-Fc on CM5 chip; read-out: KD mDLL4
Protocol: (§1) The KDs of parental antibodies anti-VEGF 219R45 (IgG format), anti-DLL4 21R79 (IgG format), anti-DLL4 21M18 (IgG format) and bispecific antibodies 219R45-MB-21M18 and 219R45-MB-21R79 were determined using a Biacore 2000 system from Biacore LifeSciences (GE Healthcare). Recombinant human DLL4-Fc or mouse DLL4-Fc proteins were immobilized on CM5 carboxyl chips using standard amine-based chemistry (NHS/EDC) and blocked with ethanolamine. Recombinant human VEGF165 or mouse VEGF165 were biotinylated and immobilized on streptavidin chips. The antibodies were serially diluted 2-fold from 100 nM to 0.78 nM in HBS-P (0.01M HEPES pH7.4, 0.15M NaCl, 0.005% v/v Polysorbate 20). For each antibody, all 8 dilutions were sequentially injected over a specific chip. Kinetic data were collected over time and were fit using the simultaneous global fit equation to yield affinity constants (KD values) for each bispecific antibody.

mouse VEGF165 = molecular target: T1, mouse VEGF165; assay: Biacore binding affinity (KD) to mouse VEGF
Protocol: as §1

[2] = tested on: OMP-PN8 pancreatic tumor cells; assay: Tumorigenicity of OMP-PN8 pancreatic tumor cells after treatment (serial transplantation); format: in vivo, NOD/SCID mice; conditions: 90 cells from treated tumors transplanted, day 55, no treatment; 21M18, bevacizumab 15 mg/kg, bispecifics 30 mg/kg, gemcitabine 70 mg/kg, four weeks
Protocol: FIG. 6. Tumorigenicity of pancreatic tumor cells after treatment with anti-VEGF/anti-DLL4 bispecific antibodies. OMP-PN8 tumor cells from mice treated with control antibody, anti-hDLL4 antibody 21M18, anti-VEGF antibody bevacizumab, or anti-VEGF/anti-DLL4 bispecific antibodies 219R45-MB-21M18 or 219R45-MB-21R79 with or without gemcitabine were processed to single cell suspensions, and serially transplanted into mice. 90 cells from each treatment group were injected subcutaneously into NOD/SCID mice. Tumors were allowed to grow with no treatment. Data is shown as tumor volume (mm^3) on day 55. Tumor frequency is shown as number of tumors over total number of mice injected in each group.
Mice bearing OMP-PN8 pancreatic tumors were treated with control antibody (15 mg/kg), anti-hDLL4 antibody 21M18 (15 mg/kg), anti-VEGF antibody bevacizumab (15 mg/kg), or anti-VEGF/anti-DLL4 bispecific antibodies 219R45-MB-21M18 or 219R45-MB-21R79 (30 mg/kg) with or without gemcitabine (70 mg/kg). Following four weeks of treatment, tumors were harvested, processed to single cell suspensions and the human tumor cells were purified by immunomagnetic depletion of murine cells. 90 human tumor cells from each treatment group were transferred to a new cohort of mice (n=10 mice/group). Tumors were allowed to grow for 55 days without any treatment and tumor volumes were measured with electronic calipers.

OMP-C8 colon tumor = assay: Tumorigenicity of OMP-C8 colon tumors after treatment (serial transplantation); format: in vivo, NOD/SCID mice; conditions: 150 cells from treated tumors transplanted, day 68; for tumor growth frequency, single agents: without irinotecan combination
Protocol: FIG. 10. Tumorigenicity of […] colon tumor cells after treatment with anti-VEGF/anti-DLL4 bispecific antibodies. Tumors from mice treated with control antibody, anti-hDLL4 antibody 21M18, anti-VEGF antibody bevacizumab, a combination of 21M18 and bevacizumab, or anti-VEGF/anti-DLL4 bispecific antibodies 219R45-MB-21M18 or 219R45-MB-21R79 with or without irinotecan were processed to single cell suspensions, and serially transplanted into mice. 150 cells from each treatment group were injected subcutaneously into NOD/SCID mice. Tumors were allowed to grow with no treatment. Data are shown as tumor volume (mm^3) on day 68.
Single cell suspensions of OMP-C8 colon tumor xenografts (20,000 cells) were injected subcutaneously into the flanks of 6-8 week old NOD/SCID mice. Tumors were allowed to grow for 33 days until they reached an average volume of 300 mm^3. The mice were randomized (n=5 per group) and treated with anti-DLL4 antibody 21M18, anti-VEGF antibody bevacizumab, a combination of antibodies 21M18 and bevacizumab, anti-VEGF/anti-DLL4 bispecific antibody 219R45-MB-21M18, anti-VEGF/anti-DLL4 bispecific antibody 219R45-MB-21R79, or control antibody, either in combination with irinotecan or without irinotecan. Antibodies and irinotecan were dosed weekly by injection into the intraperitoneal cavity. Antibodies 21M18 and bevacizumab were dosed at 7.5 mg/kg, bispecific antibodies 219R45-MB-21M18 and 219R45-MB-21R79 were dosed at 15 mg/kg, and irinotecan was dosed at 45 mg/kg. Tumors were harvested after 4 weeks, processed into single cell suspensions, and the human tumor cells were isolated. 150 tumor cells from each experimental group were injected subcutaneously into a new cohort of mice (n=10 per group) and tumors were allowed to grow without treatment. Tumor growth was monitored and tumor volumes were measured with electronic calipers.

Sequence of mouse DLL4-Fc (Q9JI71 27-519 limits assumed): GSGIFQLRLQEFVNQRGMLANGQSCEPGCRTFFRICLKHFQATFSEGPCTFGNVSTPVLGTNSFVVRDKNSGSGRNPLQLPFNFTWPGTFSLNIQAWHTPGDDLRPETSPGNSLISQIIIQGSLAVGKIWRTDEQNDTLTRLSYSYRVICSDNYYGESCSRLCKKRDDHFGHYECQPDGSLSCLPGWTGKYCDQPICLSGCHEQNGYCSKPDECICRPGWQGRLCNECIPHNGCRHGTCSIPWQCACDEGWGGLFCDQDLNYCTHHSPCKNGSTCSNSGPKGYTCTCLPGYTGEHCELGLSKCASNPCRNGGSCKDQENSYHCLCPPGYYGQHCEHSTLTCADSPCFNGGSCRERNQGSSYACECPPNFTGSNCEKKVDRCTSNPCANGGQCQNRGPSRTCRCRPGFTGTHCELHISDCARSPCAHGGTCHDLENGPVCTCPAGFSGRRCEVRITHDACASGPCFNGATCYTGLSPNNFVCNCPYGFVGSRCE

| Molecule | inhibition of DLL4-induced Notch signaling [1] | Kd (mouse DLL4-Fc) | Kd (mouse VEGF165; Biacore 2000, biotinylated mouse VEGF165 on streptavidin chip, read-out: KD mVEGF) | tumor growth frequency (mice with tumors) [2] | tumor growth frequency, single agents (OMP-C8 colon tumor) | binding to mouse VEGF (in words) (mouse VEGF165) | tumor growth frequency, combination of irinotecan and antibodies (OMP-C8 colon tumor; with irinotecan 45 mg/kg) |
| --- | --- | --- | --- | --- | --- | --- | --- |
| B1 | inhibited DLL4-induced Notch signaling | > 100 nM | > 100 nM | 5 out of 10 | reduced tumor growth frequency |  |  |
| B2 | inhibited DLL4-induced Notch signaling | > 100 nM |  | 4 out of 10 | reduced tumor growth frequency | bind mouse VEGF |  |
| B3 | inhibited DLL4-induced Notch signaling only at high antibody concentrations | > 100 nM |  | 5 out of 10 | reduced tumor growth frequency | bind mouse VEGF | had the greatest effect in reducing tumor growth frequency |
